Test [1] deals with EED labelled for microscale thermophoresis (human) (UniProt O75530). As to the kind of experiment: MST.
Test [2] addresses JMJD3 JmjC domain labelled for microscale thermophoresis (UniProt O15054). The test is described as follows: MST.

EED labelled for microscale thermophoresis (human), sequence (O75530 whole entry, the tested form may be a part): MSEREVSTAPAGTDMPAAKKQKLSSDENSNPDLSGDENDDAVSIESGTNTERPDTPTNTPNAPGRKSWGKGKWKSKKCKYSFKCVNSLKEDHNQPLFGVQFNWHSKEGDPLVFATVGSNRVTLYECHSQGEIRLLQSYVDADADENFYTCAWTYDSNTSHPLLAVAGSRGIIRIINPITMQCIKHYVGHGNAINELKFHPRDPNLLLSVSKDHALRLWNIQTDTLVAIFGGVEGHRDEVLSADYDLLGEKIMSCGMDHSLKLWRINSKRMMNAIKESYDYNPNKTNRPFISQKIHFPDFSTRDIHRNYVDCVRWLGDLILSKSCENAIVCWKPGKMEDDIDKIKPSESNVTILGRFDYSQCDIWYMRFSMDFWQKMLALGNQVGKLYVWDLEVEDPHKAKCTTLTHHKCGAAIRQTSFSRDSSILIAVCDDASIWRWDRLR
JMJD3 JmjC domain labelled for microscale thermophoresis, sequence (O15054 1339-1502): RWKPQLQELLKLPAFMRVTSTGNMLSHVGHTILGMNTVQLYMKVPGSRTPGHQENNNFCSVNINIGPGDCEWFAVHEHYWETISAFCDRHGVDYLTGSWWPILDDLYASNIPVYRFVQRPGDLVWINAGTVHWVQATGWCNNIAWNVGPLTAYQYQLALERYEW

For “NOP16 aa 25-32 peptide, mono-methylated K29 (from UniProt Q9Y3C1 25-32)”, the Kd in test [1] is 100 µM.
As for H3K27me3 peptide, the Kd in test [2] was 8.59 µM; in test [1], 0.95 µM.
Take “NOP16 aa 25-32 peptide, tri-methylated K29 (from UniProt Q9Y3C1 25-32)”: the Kd in test [1] was 1.21 µM.
On the same count and under the same terms, for “NOP16 aa 25-32 peptide, di-methylated K29 (from UniProt Q9Y3C1 25-32)” the value was 131 µM.
Still for that read-out and setting: then “NOP16 aa 25-32 peptide, unmethylated K29 (from UniProt Q9Y3C1 25-32)”, with 11.6 µM.

What is called Kd is the equilibrium constant for the complex coming apart.

Values taken from doi:10.1101/2023.06.13.544862.
